Results on 51 sequences are retold here after the Immune Epitope Database (IEDB).

A word on the Kd: it is the concentration at which binding is half-saturated. The term IC50 denotes the concentration that inhibits the measured activity by half. Read a high IC50 as lower potency.

The target of one experiment is HLA-A*02:06. The experiment in a line: IEDB peptide-MHC binding, purified MHC/competitive/radioactivity; filed as Kd, often an IC50 or EC50 that approximates it; ≥ and ≤ were set here for values at or beyond the usual limits of such assays. The settings on record: source organism: Dengue virus 2 Jamaica/1409/1983.
For a further experiment, the target named is HLA-A*26:01. The experiment is described as above.
The target of another experiment is HLA-A*30:01. Described as above.
The target of a further experiment is HLA-A*23:01. The experiment is described as above.
The target of another experiment is HLA-A*24:02. The experiment is described as above.
A further experiment has as its target HLA-A*29:02. Described as above.
Experiment [1] addresses HLA-A*01:01. The experiment is described as above.
Another experiment has as its target HLA-A*02:01. In words: IEDB peptide-MHC binding, purified MHC/competitive/fluorescence; ≥ and ≤ were set here for values at or beyond the usual limits of such assays.
The next experiment deals with HLA-A*03:01. The experiment in a line: IEDB peptide-MHC binding, purified MHC/competitive/radioactivity; filed as Kd, often an IC50 or EC50 that approximates it; ≥ and ≤ were set here for values at or beyond the usual limits of such assays. The settings on record: source organism: Dengue virus 2 Jamaica/1409/1983.
The target of the next experiment is HLA-A*11:01. The experiment is described as above. The conditions noted are these: source organism: Dengue virus 2 Jamaica/1409/1983.
A further experiment concerns the target HLA-A*30:02. The description is as above.
Experiment [2] addresses HLA-A*01:01. In words: IEDB peptide-MHC binding, purified MHC/direct/fluorescence; filed as Kd, often an IC50 or EC50 that approximates it; ≥ and ≤ were set here for values at or beyond the usual limits of such assays. The settings on record: source organism: SARS-CoV1.
The next experiment addresses HLA-B*15:01. The description is as above. The conditions noted are these: source organism: SARS-CoV1.
The target of the next experiment is HLA-A*68:01. In words: IEDB peptide-MHC binding, purified MHC/competitive/radioactivity; filed as Kd, often an IC50 or EC50 that approximates it; ≥ and ≤ were set here for values at or beyond the usual limits of such assays. The conditions noted are these: source organism: Dengue virus 2 Jamaica/1409/1983.
Where [3] appears, read: source organism: Dengue virus 2 Jamaica/1409/1983.
[4] abbreviates: source organism: Vaccinia virus WR.
[5] abbreviates: source organism: Mammarenavirus guanaritoense.
Setting [6] is: source organism: Dengue virus 3 Martinique/1243/1999.
[7] abbreviates: source organism: Zaire ebolavirus.
[8] abbreviates: source organism: Mammarenavirus brazilense.
The mark [9] stands for this setting: source organism: SARS coronavirus Tor2.
Where [10] appears, read: source organism: Dengue virus 4 Philippines/H241/1956.
Where [11] appears, read: source organism: Dengue virus 1 Brazil/97-11/1997.
Where [12] appears, read: source organism: Sudan ebolavirus.
The mark [13] stands for this setting: source organism: Lassa virus Josiah.
The mark [14] stands for this setting: source organism: Dengue virus 3 Singapore/8120/1995.
The mark [15] stands for this setting: source organism: Lymphocytic choriomeningitis virus (strain Armstrong).

On to STIPETILEL, for which the Kd stood at 79.6 nM with HLA-A*02:06 and 831 nM in the experiment with HLA-A*26:01 (setting [3]).
For KNKESLPML, in the experiment with HLA-A*30:01 (setting [4]), the Kd amounted to 18.3 nM.
INYCLDFLF: the Kd with HLA-A*23:01 (setting [5]) turned out to be 56.5 nM; with HLA-A*24:02 (setting [5]), 1270 nM; in the experiment with HLA-A*29:02 (setting [5]), 125 nM.
For AWMVHRQWF, the results for the Kd with HLA-A*23:01 (setting [6]) and with HLA-A*24:02 (setting [6]) were 340 nM and 42.9 nM, respectively.
Take MTDDIGMGVT: the Kd with HLA-A*01:01 [1] (setting [3]) worked out at 1130 nM.
For the sequence VYKEGTFHTM, in the experiment with HLA-A*24:02 (setting [3]), the Kd stood at 14.7 nM.
In the experiment with HLA-A*02:01 (source organism: Hepatitis C virus genotype 1), SVIDCNTCV yielded an IC50 of 5000 nM. This lies in the single-digit micromolar range.
SILASSLLK: the Kd with HLA-A*03:01 came to 13.8 nM; with HLA-A*11:01, 11 nM; with HLA-A*30:01 (setting [3]) it was 190 nM.
LICGLRQLA registered an IC50 with HLA-A*02:01 (setting [7]) of 995 nM.
IDQIIHDFV: in the experiment with HLA-A*02:01 (setting [7]), the IC50 was at least 195000 nM.
On to LSRKTFDSEY, for which the Kd with HLA-A*01:01 [1] (setting [3]) amounted to 1820 nM; with HLA-A*30:02 (setting [3]) it was 627 nM.
Regarding LYALITEQF, the Kd worked out at 2.79 nM in the experiment with HLA-A*23:01 (setting [8]), 16.8 nM in the experiment with HLA-A*24:02 (setting [8]) and 731 nM in the experiment with HLA-A*29:02 (setting [8]).
As for KISISSLCK, the Kd with HLA-A*30:01 (setting [4]) is 88.1 nM.
On to EWSVATFYLF, for which the Kd was determined as 1160 nM with HLA-A*01:01 [1] (setting [9]); 0.0328 nM in the experiment with HLA-A*23:01 (setting [9]); 27.2 nM in the experiment with HLA-A*24:02 (setting [9]); 17.4 nM with HLA-A*29:02 (setting [9]); 1730 nM with HLA-A*30:02 (setting [9]).
For the sequence VDTRTPRPMP, the Kd with HLA-A*30:01 (source organism: Dengue virus 3 Sri Lanka/1266/2000) was determined as 415 nM.
As to ERNRVSTPQG, in the experiment with HLA-A*30:01 (setting [10]), the Kd is 121 nM.
Consider TWLVHKQWFL, for which, in the experiment with HLA-A*23:01 (setting [10]), the Kd is 124 nM.
As to RLGPTLMCL, the IC50 with HLA-A*02:01 (source organism: Homo sapiens) turned out to be 1780 nM.
For RFLAIPPTA, the Kd with HLA-A*30:01 (setting [11]) amounted to 127 nM.
SFGCKPLTMF: the Kd with HLA-A*23:01 (setting [11]) was 103 nM.
On to TWSIHAHHQW, for which the Kd with HLA-A*23:01 (setting [11]) was 950 nM; in the experiment with HLA-A*24:02 (setting [11]) it was 1080 nM.
For AAMISLAKK, the Kd in the experiment with HLA-A*30:01 (setting [4]) amounted to 151 nM.
As for ESWILRNPGF, the Kd was 9730 nM in the experiment with HLA-A*26:01 (setting [10]) and 427 nM in the experiment with HLA-A*30:01 (setting [10]).
In the case of AIVNAQPKC, the IC50 in the experiment with HLA-A*02:01 (setting [7]) was at least 73800 nM.
Consider NQDLNGNWY, for which the Kd in the experiment with HLA-A*01:01 [2] was 282 nM; in the experiment with HLA-B*15:01, 15300 nM; with HLA-A*23:01 (setting [9]), at least 77800 nM; with HLA-A*24:02 (setting [9]), at least 77600 nM; in the experiment with HLA-A*26:01 (setting [9]), at least 35000 nM; in the experiment with HLA-A*29:02 (setting [9]), 854 nM. Moreover, the Kd in the experiment with HLA-A*30:02 (setting [9]) turned out to be 2710 nM.
As to FKIDNNTFV, the IC50 in the experiment with HLA-A*02:01 (setting [12]) worked out at 40800 nM.
Take GLNLEGNGV: in the experiment with HLA-A*02:01 (setting [7]), the IC50 is 10800 nM.
Turning to FFQEVPHVI, the Kd is 239 nM in the experiment with HLA-A*23:01 (setting [13]), 713 nM with HLA-A*24:02 (setting [13]) and 508 nM in the experiment with HLA-A*29:02 (setting [13]).
Take RVRYLTRNY: in the experiment with HLA-A*30:01 (setting [4]), the Kd came to 5.62 nM.
In turn, RSEELSFTV came in with an IC50 with HLA-A*02:01 (setting [7]) of 2380 nM.
In the case of NYPLWSQSY, the Kd in the experiment with HLA-A*24:02 (source organism: Homo sapiens) was found to be 363 nM.
The sequence GLDDQEKKI had an IC50 with HLA-A*02:01 (setting [7]) of 41200 nM.
Turning to FSGLLIVKT, in the experiment with HLA-A*02:01 (setting [7]), the IC50 is at least 370000 nM.
For the sequence IFITDNVHTW, the Kd in the experiment with HLA-A*23:01 (setting [3]) turned out to be 36.7 nM.
Consider RVSTGSQLA, for which the dissociation constant Kd with HLA-A*30:01 (setting [11]) was found to be 81.3 nM.
FARLLNLSG: the IC50 with HLA-A*02:01 (setting [7]) amounted to 48200 nM.
As to ILPEEQDQNY, the Kd was at least 38700 nM with HLA-A*01:01 [1] (setting [14]) and at least 37200 nM with HLA-A*30:02 (setting [14]).
As to ALTLATGPIS, the Kd with HLA-A*30:01 (setting [3]) was 220 nM.
Turning to ETAECPNTNR, the Kd worked out at 10500 nM with HLA-A*26:01 (setting [3]) and 13.9 nM in the experiment with HLA-A*68:01.
Consider HVKIPTHLT, for which the Kd with HLA-A*30:01 (setting [4]) came out at 224 nM.
Take LIGNEEYTDY: the Kd with HLA-A*01:01 [1] (setting [3]) was found to be 1070 nM.
On to LWMAEIPLQW, for which the Kd with HLA-A*23:01 (setting [6]) amounted to 13.7 nM; with HLA-A*24:02 (setting [6]), 38.6 nM.
Consider HSLISNLLV, for which, in the experiment with HLA-A*30:01 (source organism: Vaccinia virus Copenhagen), the Kd was 558 nM.
As to EYHLLYQKT, the values for the Kd with HLA-A*26:01 (setting [15]) and in the experiment with HLA-A*30:02 (setting [15]) were at least 77900 nM and at least 35000 nM, respectively.
MPLGVVTNS gave an IC50 in the experiment with HLA-A*02:01 (setting [12]) of 13000 nM.
RTRVGTKHA: the Kd in the experiment with HLA-A*30:01 (setting [3]) is 0.02 nM.
GTKIALLEL: the Kd in the experiment with HLA-A*30:01 (setting [4]) was 1.34 nM.
As for KVHEISARG, in the experiment with HLA-A*30:01 (setting [4]), the Kd turned out to be 176 nM.
YMDDRDINP: in the experiment with HLA-A*02:01 (source organism: Vaccinia virus), the IC50 came out at 27100 nM.
Turning to RVSTVSQLA, the Kd with HLA-A*30:01 (source organism: Dengue virus 1 Nauru/West Pac/1974) worked out at 355 nM.
For KMRDTLPAK, the Kd with HLA-A*30:01 (setting [4]) worked out at 1.58 nM.
